Laboratory results from patent US20230390362A1, “USE OF TRIGONAL AGONIST HAVING ACTIVITIES TO ALL OF GLUCAGON, GLP-1, AND GIP RECEPTORS IN TREATMENT OF SEQUELAE FOLLOWING RESPIRATORY INFECTIOUS DISEASES” (HANMI PHARM. CO., LTD., priority 2020, published 2023).
Positions of bridges follow the written chain, without caps; N, C: chain ends. Non-standard residues stand in square brackets, D forms with d. No end group written: not given here. *: point of attachment. Acetyl(2-(4-imidazolyl)) = O=C(Cc1c[nH]cn1)*; Aib = CC(C)(N)C(=O)O

B1: trigonal agonist of SEQ ID NO: 95 (peptide)
peptide: Y[Aib]QGTFTSDYSKYLDEKRAKEFVQWLLCHHPSSGQPPPS
modifications: bridge 16-20
B2: trigonal agonist of SEQ ID NO: 94 (peptide)
peptide: {Acetyl(2-(4-imidazolyl))}-[Aib]QGTFTSDYSIAMDEIHQKDFVNWLLNTKC
modifications: bridge 15-19
B3: trigonal agonist of SEQ ID NO: 96 (peptide)
peptide: Y[Aib]QGTFTSDYSKYLDEKRAKEFVQWLLDHCPSSGQPPPS
modifications: bridge 16-20
B4: trigonal agonist of SEQ ID NO: 16 (peptide)
peptide: {Acetyl(2-(4-imidazolyl))}-GQGTFTSDLSKQMDSEAQQLFIEWLKNGGPSSGAPPPSHG
B5: trigonal agonist of SEQ ID NO: 18 (peptide)
peptide: {Acetyl(2-(4-imidazolyl))}-GQGTFTSDLSKQMDSERAREFIEWLKNTGPSSGAPPPSHG
B6: trigonal agonist of SEQ ID NO: 17 (peptide)
peptide: {Acetyl(2-(4-imidazolyl))}-GQGTFTSDLSKQMDEERAREFIEWLLAQKPSSGAPPPSHG
B7: trigonal agonist of SEQ ID NO: 14 (peptide)
peptide: {Acetyl(2-(4-imidazolyl))}-GQGTFTSDYSIQLDEIAVRDFVEWLKNGGPSSGAPPPSHG
B8: trigonal agonist of SEQ ID NO: 93 (peptide)
peptide: {Acetyl(2-(4-imidazolyl))}-[Aib]QGTFTSDYSKYLDEKRQKEFVNWLLAQKC
modifications: bridge 15-19
B9: trigonal agonist of SEQ ID NO: 87 (peptide)
peptide: {Acetyl(2-(4-imidazolyl))}-[Aib]QGTFTSDYSIAMDEIHQKDFVNWLLNTC
modifications: bridge 15-19
B10: trigonal agonist of SEQ ID NO: 102 (peptide)
peptide: Y[Aib]QGTFTSDYSKALDEKAAKDFVNWLLDQHPSSGQPPPSC
modifications: bridge 16-20
B11: trigonal agonist of SEQ ID NO: 85 (peptide)
peptide: {Acetyl(2-(4-imidazolyl))}-[Aib]QGTFTSDYSIAMDEIHQKDFVNWLLAQC
modifications: bridge 15-19
B12: trigonal agonist of SEQ ID NO: 99 (peptide)
peptide: Y[Aib]QGTFTSDYSKALDEKAAKDFVNWLLDHHPSSGQPPPSC
modifications: bridge 16-20
B13: trigonal agonist of SEQ ID NO: 90 (peptide)
peptide: {Acetyl(2-(4-imidazolyl))}-[Aib]EGTFTSDYSIAMDEIHQKDFVNWLLAQKC
modifications: bridge 15-19
B14: trigonal agonist of SEQ ID NO: 13 (peptide)
peptide: {Acetyl(2-(4-imidazolyl))}-GEGTFISDYSIQLDEIAVQDFVEWLLAQKPSSGAPPPSHG
B15: trigonal agonist of SEQ ID NO: 10 (peptide)
peptide: H[Aib]QGTFTSDVSKYLDGQAAQEFVAWLLAGGGPSSGAPPPSC
B16: trigonal agonist of SEQ ID NO: 11 (peptide)
peptide: {Acetyl(2-(4-imidazolyl))}-GEGTFTSDLSKYLDSRRQQLFVQWLKAGGPSSGAPPPSHG
B17: trigonal agonist of SEQ ID NO: 91 (peptide)
peptide: {Acetyl(2-(4-imidazolyl))}-[Aib]EGTFTSDYSIAMDEIHQKDFVDWLLAEKC
modifications: bridge 15-19
B18: trigonal agonist of SEQ ID NO: 92 (peptide)
peptide: {Acetyl(2-(4-imidazolyl))}-[Aib]QGTFTSDYSIAMDEIHQKDFVNWLLAQKC
modifications: bridge 15-19
B19: trigonal agonist of SEQ ID NO: 12 (peptide)
peptide: {Acetyl(2-(4-imidazolyl))}-GEGTFISDLSKYMDEQAVQLFVEWLMAGGPSSGAPPPSHG
B20: trigonal agonist of SEQ ID NO: 86 (peptide)
peptide: {Acetyl(2-(4-imidazolyl))}-[Aib]QGTFTSDYSKYLDEKRQKEFVNWLLAQC
modifications: bridge 15-19
B21: trigonal agonist of SEQ ID NO: 101 (peptide)
peptide: Y[Aib]QGTFTSDYSKALDEKAAKEFVNWLLDQHPSSGQPPPSC
modifications: bridge 16-20
B22: trigonal agonist of SEQ ID NO: 100 (peptide)
peptide: Y[Aib]QGTFTSDYSKALDEKAAKEFVQWLLDQHPSSGQPPPSC
modifications: bridge 16-20
B23: trigonal agonist of SEQ ID NO: 97 (peptide)
peptide: Y[Aib]QGTFTSDYSKYLDEKRAKEFVQWLLDCHPSSGQPPPS
modifications: bridge 16-20
B24: trigonal agonist of SEQ ID NO: 88 (peptide)
peptide: {Acetyl(2-(4-imidazolyl))}-[Aib]QGTFTSDYSKYLDEKRQKEFVQWLLNTKC
modifications: bridge 15-19
B25: trigonal agonist of SEQ ID NO: 2 (peptide)
peptide: H[Aib]QGTFTSDVSSYLDGQAQKEFIAWLVKGC
B26: trigonal agonist of SEQ ID NO: 98 (peptide)
peptide: Y[Aib]QGTFTSDYSKALDEKAAKEFVNWLLDHHPSSGQPPPSC
modifications: bridge 16-20
B27: trigonal agonist of SEQ ID NO: 89 (peptide)
peptide: {Acetyl(2-(4-imidazolyl))}-[Aib]QGTFTSDYSKYLDEKRQKEFVQWLLDTKC
modifications: bridge 15-19

Biological target: human GLP-1 receptor (human, UniProt P43220 24-463)
Experiment: cell-based or functional assay

Binder	In vitro activity relative to native peptide (%), vs. GLP-1 (cAMP EC50)
B1	2.1%
B2	0.5%
B3	34.4%
B4	2.1%
B5	< 0.1%
B6	0.2%
B7	28%
B8	5.7%
B9	0.9%
B10	23.3%
B11	4.3%
B12	20.9%
B13	7.4%
B14	< 0.1%
B15	46%
B16	1.4%
B17	31.9%
B18	0.8%
B19	0.4%
B20	28.4%
B21	23.2%
B22	42.2%
B23	10.5%
B24	9.6%
B25	5.9%
B26	28.1%
B27	7.1%

Biological target: human GCG receptor (human, UniProt P47871 26-477)
Experiment: cell-based or functional assay

Sequence of human GCG receptor (P47871 26-477): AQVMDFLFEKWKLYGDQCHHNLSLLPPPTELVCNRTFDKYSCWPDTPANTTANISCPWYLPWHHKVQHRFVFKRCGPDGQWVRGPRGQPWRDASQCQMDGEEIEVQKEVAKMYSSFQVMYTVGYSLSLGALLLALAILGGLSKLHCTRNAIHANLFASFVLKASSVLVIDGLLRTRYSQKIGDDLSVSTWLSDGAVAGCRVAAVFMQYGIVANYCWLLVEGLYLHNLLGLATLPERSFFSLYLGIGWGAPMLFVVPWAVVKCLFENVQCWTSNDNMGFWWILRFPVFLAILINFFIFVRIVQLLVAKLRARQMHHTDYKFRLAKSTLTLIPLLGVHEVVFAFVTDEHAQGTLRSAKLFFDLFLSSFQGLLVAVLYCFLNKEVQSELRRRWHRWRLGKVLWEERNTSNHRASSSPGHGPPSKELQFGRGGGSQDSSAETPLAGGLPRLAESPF

Binder	In vitro activity relative to native peptide (%), vs. Glucagon (cAMP EC50)
B1	0.4%
B2	< 0.1%
B3	195%
B4	< 0.1%
B5	< 0.1%
B6	< 0.1%
B7	< 0.1%
B8	0.3%
B9	< 0.1%
B10	29.5%
B11	< 0.1%
B12	14.9%
B13	< 0.1%
B14	< 0.1%
B15	< 0.1%
B16	< 0.1%
B17	16.8%
B18	< 0.1%
B19	< 0.1%
B20	0.4%
B21	13.9%
B22	12.7%
B23	62.8%
B24	0.3%
B25	< 0.1%
B26	8.2%
B27	0.7%

Biological target: T1, human GIP receptor (human, UniProt P48546 22-466)
T1 sequence (looked up): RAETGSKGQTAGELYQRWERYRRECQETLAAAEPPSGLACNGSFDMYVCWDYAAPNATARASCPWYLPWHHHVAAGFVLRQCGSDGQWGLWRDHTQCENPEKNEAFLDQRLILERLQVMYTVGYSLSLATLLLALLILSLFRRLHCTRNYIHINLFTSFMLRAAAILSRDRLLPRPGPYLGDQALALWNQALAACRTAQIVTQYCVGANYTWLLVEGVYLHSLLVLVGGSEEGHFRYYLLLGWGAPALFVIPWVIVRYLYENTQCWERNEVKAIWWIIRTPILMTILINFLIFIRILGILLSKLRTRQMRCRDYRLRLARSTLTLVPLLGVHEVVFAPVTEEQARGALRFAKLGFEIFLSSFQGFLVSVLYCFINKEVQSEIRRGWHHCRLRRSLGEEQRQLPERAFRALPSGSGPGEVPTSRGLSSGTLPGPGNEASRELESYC
Experiment: cell-based or functional assay

Binder	In vitro activity relative to native peptide (%), vs. GIP (cAMP EC50)
B1	< 0.1%
B2	< 0.1%
B3	5.2%
B4	< 0.1%
B5	< 0.1%
B6	< 0.1%
B7	< 0.1%
B8	0.7%
B9	< 0.1%
B10	58%
B11	0.3%
B12	57.7%
B13	< 0.1%
B14	< 0.1%
B15	< 0.1%
B16	< 0.1%
B17	0.3%
B18	0.4%
B19	< 0.1%
B20	0.2%
B21	40.1%
B22	118%
B23	2.6%
B24	< 0.1%
B25	< 0.1%
B26	47.1%
B27	< 0.1%
